{
  "source": "paper PMC7083075",
  "about": "(Cell, 2019)",
  "binders": {"B1": {"name": "KCNE3 (full-length human, N-terminal mCherry2) (natural protein, UniProt Q9Y6H6 1-103, looked up)", "chain": "METTNGTETWYESLHAVLKALNATLHSNLLCRPGPGLGPDNQTEERRASLPGRDDNSYMYILFVMFLFAVTVGSLILGYTRSRKVDKRSDPYHVYIKNRVSMI"}},
  "biological_target": "T1, hKCNQ1EM (human KCNQ1, residues 76-620) (human, UniProt P51787-1 76-620)",
  "T1 sequence (looked up)": "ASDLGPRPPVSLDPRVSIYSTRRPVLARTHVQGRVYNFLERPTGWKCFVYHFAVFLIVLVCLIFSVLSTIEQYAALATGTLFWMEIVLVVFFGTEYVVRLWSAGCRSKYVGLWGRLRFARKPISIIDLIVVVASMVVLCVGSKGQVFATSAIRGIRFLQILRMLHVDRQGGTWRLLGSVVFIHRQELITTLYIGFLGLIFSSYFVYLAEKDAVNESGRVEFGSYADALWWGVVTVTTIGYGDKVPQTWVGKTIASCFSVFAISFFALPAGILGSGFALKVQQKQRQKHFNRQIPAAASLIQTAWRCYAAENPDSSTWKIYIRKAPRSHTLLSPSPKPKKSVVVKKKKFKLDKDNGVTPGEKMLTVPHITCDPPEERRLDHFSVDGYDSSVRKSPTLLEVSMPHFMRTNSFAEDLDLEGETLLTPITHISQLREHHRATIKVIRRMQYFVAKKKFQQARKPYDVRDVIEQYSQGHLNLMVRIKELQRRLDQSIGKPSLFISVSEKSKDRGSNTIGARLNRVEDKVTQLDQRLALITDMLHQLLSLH",
  "test": "cryo-EM structure",
  "data": [
    {"binder": "B1", "values": [
      {"measurement": "stoichiometry N", "result": 4, "unit": "KCNE3 per KCNQ1 tetramer"}
    ]}
  ]
}
